According to patent US20250042994A1 (HAINAN SIMCERE ZAIMING PHARMACEUTICAL, published 2025):

T1: human CD19 on Raji cells (human, UniProt P15391 20-556)
T1 construct: whole, on cells
T1 sequence (looked up): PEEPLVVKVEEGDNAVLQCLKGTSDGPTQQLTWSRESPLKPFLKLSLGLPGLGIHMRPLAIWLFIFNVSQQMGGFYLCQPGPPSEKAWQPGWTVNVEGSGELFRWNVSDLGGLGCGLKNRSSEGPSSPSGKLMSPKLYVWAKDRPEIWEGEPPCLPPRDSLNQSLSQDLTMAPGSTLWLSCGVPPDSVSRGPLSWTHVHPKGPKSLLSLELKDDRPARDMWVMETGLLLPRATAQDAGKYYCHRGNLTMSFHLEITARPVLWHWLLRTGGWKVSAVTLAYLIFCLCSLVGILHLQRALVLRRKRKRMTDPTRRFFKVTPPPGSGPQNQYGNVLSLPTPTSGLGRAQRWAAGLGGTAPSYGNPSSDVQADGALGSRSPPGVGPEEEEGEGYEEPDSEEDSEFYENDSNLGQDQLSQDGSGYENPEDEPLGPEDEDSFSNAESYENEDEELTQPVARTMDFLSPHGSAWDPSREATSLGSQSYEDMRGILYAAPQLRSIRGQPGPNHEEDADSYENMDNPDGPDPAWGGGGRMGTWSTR

T2: human CD19 on CHO-K1-human CD19 cells (human, UniProt P15391 20-556)
T2 construct: whole, on cells; also called CHO-K1-human CD19-2C8
T2 sequence (looked up): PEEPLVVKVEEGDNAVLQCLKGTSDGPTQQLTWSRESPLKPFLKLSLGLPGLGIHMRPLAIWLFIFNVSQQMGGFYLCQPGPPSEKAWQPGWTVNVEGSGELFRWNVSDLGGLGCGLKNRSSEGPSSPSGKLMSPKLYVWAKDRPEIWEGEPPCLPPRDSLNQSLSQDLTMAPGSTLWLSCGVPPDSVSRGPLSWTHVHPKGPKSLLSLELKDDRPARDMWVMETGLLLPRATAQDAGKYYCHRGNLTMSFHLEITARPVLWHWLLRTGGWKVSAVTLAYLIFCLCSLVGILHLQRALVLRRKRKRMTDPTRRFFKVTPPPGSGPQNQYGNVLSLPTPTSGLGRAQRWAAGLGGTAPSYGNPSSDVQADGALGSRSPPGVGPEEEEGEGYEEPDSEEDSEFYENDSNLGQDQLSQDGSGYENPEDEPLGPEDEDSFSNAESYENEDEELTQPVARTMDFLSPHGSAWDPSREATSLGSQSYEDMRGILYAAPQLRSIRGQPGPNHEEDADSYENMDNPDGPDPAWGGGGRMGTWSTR

T3: cynomolgus monkey CD19 on peripheral blood B cells (cynomolgus monkey (Macaca fascicularis), UniProt A0A2K5W8L9 20-557)
T3 construct: whole, on cells; also called cynomolgus monkey B cells
T3 sequence: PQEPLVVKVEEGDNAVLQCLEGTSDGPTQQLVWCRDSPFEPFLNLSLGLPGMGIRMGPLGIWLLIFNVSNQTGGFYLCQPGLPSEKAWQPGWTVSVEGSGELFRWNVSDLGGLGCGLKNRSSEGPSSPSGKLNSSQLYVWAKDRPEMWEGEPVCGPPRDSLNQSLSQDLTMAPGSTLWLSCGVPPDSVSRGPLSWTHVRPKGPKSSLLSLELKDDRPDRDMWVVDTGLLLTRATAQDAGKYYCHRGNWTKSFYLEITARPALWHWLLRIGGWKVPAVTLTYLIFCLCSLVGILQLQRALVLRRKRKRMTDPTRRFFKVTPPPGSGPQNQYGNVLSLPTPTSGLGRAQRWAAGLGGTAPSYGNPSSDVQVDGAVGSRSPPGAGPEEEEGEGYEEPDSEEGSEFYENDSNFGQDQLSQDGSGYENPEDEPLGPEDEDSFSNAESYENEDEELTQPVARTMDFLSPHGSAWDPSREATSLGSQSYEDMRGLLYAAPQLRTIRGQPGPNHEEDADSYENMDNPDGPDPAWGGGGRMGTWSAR

T4: human CD19 exon1-3-His tag protein (human, UniProt P15391 20-186, limits assumed)
T4 construct: membrane-distal part of the extracellular region, made in HEK293E cells; not shown: His tag
T4 sequence (looked up): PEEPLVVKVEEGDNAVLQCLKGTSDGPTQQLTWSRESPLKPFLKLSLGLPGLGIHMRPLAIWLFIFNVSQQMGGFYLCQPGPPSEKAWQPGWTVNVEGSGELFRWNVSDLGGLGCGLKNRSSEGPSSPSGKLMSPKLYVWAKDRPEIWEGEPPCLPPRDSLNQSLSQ

T5: Human CD19-his protein (human, UniProt P15391 20-291)
T5 construct: bought protein; also called recombinant human CD19-His; CD19 full-length protein; not shown: His tag
T5 sequence (looked up): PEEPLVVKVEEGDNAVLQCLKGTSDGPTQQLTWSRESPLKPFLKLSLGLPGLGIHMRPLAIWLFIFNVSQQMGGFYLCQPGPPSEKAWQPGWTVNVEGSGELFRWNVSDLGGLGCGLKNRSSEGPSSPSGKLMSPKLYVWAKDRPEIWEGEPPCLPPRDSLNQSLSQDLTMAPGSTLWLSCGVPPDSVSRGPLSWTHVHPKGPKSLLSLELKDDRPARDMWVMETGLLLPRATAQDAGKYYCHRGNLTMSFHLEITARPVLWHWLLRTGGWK


What was measured:
human CD19 on Raji cells = target: T1, human CD19 on Raji cells; assay: FACS on Raji cells
[1] = target: T2, human CD19 on CHO-K1-human CD19 cells; assay: FACS on CHO-K1-human CD19 cells
monkey CD19 protein [2] = target: T6, monkey CD19 protein (monkey); assay: ELISA, coated monkey CD19 protein
T6 construct: also called monkey CD19-His protein
Procedure: (§1) Human CD19-his protein (purchased from ACROBiosystems, catalog number: CD9-H52H2) was diluted with PBS to a final concentration of 4 μg/mL, and then added to a 96-well ELISA plate at 100 μl/well. The plate was sealed with a plastic film and incubated overnight at 4° C., the plate was washed 2 times with PBS the next day, and then a blocking solution [PBS+2% (w/w) BSA] was added for blocking at room temperature for 2 h. The blocking solution was poured off, and 100 nM gradiently diluted CD19 chimeric antibody or control antibody was added at 50 μl/well. After incubation at 37° C. for 2 h, the plate was washed 3 times with PBS. […] TMB substrate was added at 50 μl/well, and incubated at room temperature for 10 min, and then a stop solution (1.0 N HCl) was added at 50 μl/well. The OD450 nm values were read by an ELISA microplate reader (Multimode Plate Reader, EnSight, purchased from Perkin Elmer).
(§2) In order to detect the species cross-binding activity of the chimeric antibodies, an ELISA plate was coated with commercial murine CD19 (ACROBiosystems, catalog number: 50510-M08H) and monkey CD19 (ACROBiosystems, catalog number: 90051-C08H), respectively, and the ELISA detection was performed according to the method in example 5.1.

[3] = target: T7, monkey CD19 on HEK293T-monkey CD19 cells (monkey); assay: FACS on HEK293T-monkey CD19 cells
T7 construct: whole, on cells
Summary of the method: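 Antibody binding was read as MFI by flow cytometry and EC50 was taken from curve fitting. Before that, cells at 2×10⁶ cells/ml in PBS with 2% (w/w) BSA were exposed to samples for 2 h on ice and washed. Parental HEK293T cells were tested the same way.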

[4] = target: T3, cynomolgus monkey CD19 on peripheral …; assay: FACS, cynomolgus PBMC, CD20+ B cells
monkey CD19 protein [5] = target: T6, monkey CD19 protein; assay: ELISA on coated monkey CD19-His
Procedure: as §1, §2

[6] = target: T4, human CD19 exon1-3-His tag protein; assay: ELISA on coated human CD19 exon 1-3-His
monkey CD19-His protein = target: T8, monkey CD19-His protein (monkey); assay: SPR Biacore, method of example 7.1, monkey CD19-His
T8 construct: bought protein; also called monkey CD19 protein
Procedure: A sample buffer and a running buffer were HBS-EP+ (10 mM HEPES, 150 mM NaCl, 3 mM EDTA and 0.05% surfactant P20) (GE Healthcare; BR-1006-69). The flow-through cell was set to 25° C. The sample block was set to 16° C. Both were pretreated with the running buffer. In each cycle, an antibody to be detected was first captured with a Protein A chip, and then a single concentration of CD19 antigen protein was injected. The binding and dissociation processes of the antibody and the antigen protein were recorded, and finally Glycine pH 1.5 (GE Healthcare; BR-1003-54) was used to complete chip regeneration. The binding was measured by injecting different concentrations of recombinant human CD19-His proteins in a solution for 240 s with a flow rate of 30 μl/min. The concentration started from 200 nM (see the detailed results for the actual concentration in the test) and was diluted at 1:1, making a total of 5 concentrations. The dissociation phase was monitored for up to 600 s and was triggered by switching from sample solution to running buffer. The surface was regenerated by washing with a 10 mM glycine solution (pH 1.5) for 30 s at a flow rate of 30 μl/min. Bulk refractive index difference was corrected by subtracting the response obtained from the goat anti-human Fc surface. Blank injection was also subtracted (=double reference). For calculation of apparent KD and other kinetic parameters, Langmuir 1:1 model was used.
According to the method in example 7.1, the affinity of the chimeric antibodies to monkey CD19 (ACROBiosystems, catalog number: 90051-C08H) protein was determined.

Human CD19-his protein = target: T5, Human CD19-his protein; assay: SPR Biacore, Ab captured on Protein A, CD19-His analyte
Summary of the method: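 Apparent KD came from a Langmuir 1:1 fit of double-referenced sensorgrams. Recombinant human CD19-His analyte (top 200 nM, 1:1 serial dilution, 5 concentrations) flowed over Protein A-captured antibody for 240 s at 30 μl/min, then buffer for up to 600 s. Running buffer HBS-EP+ at 25 °C; regeneration with 10 mM glycine pH 1.5.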

EC50 (human CD19 on Raji cells) [nM] | Maximum mean fluorescence intensity (human CD19 on Raji cells) | EC50 [1] [nM] | Maximum mean fluorescence intensity [1] | OD450 at 0.0001 nM (monkey CD19 protein [2]) [OD450] | OD450 at 0.001 nM (monkey CD19 protein [2]) [OD450] | OD450 at 0.01 nM (monkey CD19 protein [2]) [OD450] | OD450 at 0.10 nM (monkey CD19 protein [2]) [OD450] | OD450 at 1.00 nM (monkey CD19 protein [2]) [OD450] | OD450 at 10 nM (monkey CD19 protein [2]) [OD450] | OD450 at 100 nM (monkey CD19 protein [2]) [OD450] | EC50 [3] [nM] | Maximum mean fluorescence intensity [3] | Proportion of chimeric antibody positive cells to B cells (%) at 1 nM [4] [%] | Proportion of chimeric antibody positive cells to B cells (%) at 10 nM [4] [%] | Proportion of chimeric antibody positive cells to B cells (%) at 100 nM [4] [%] | EC50 (read off the curve) (monkey CD19 protein [5]) [nM] | also measured | Binder
8.38 | 25900 | 18 | 3380 | 0.07 | 0.1 | 0.24 | 1.11 | 2.05 | 2.4 | 2.75 | 9.64 | 156000 | 6 | 25 | 79 | ~0.2 |  | F3.118.14 (antibody, human IgG1, V domains shown, human-murine chimeric antibody, human IgG1) VH: QVQLQQSGAELVRPGASVTLSCKASGYTFPDYEIHWVKQTPVHGLEWIGAIDPETGGIGYNQKFTGKAMLTADKSSSTAYMELRSLTSEDSAVYFCTRNYGSRWGQGSTLTVSS VL: not shown
1.62 | 27400 | 3.13 | 4990 | 0.07 | 0.11 | 0.38 | 1.48 | 2.27 | 2.51 | 2.49 | 6.45 | 179000 | 4 | 18 | 56 | ~0.07 |  | F3.77.6 (antibody, human IgG1, V domains shown, human-murine chimeric antibody, human IgG1) VH: EFQLQQSGPELVKPGASVKISCKASGYSFTDYNMNWVKQSNGKSLEWIGTINPNYITSYNQKFKGKATLTVDQSSSTAYMQLNSLTSEDSAVYYCAGDYKGYWGQGTTLTVSS VL: not shown
 |  |  |  |  |  |  |  |  |  |  |  |  |  |  |  |  | EC50 (read off the curve) [6]: ~0.1 nM; Kd (monkey CD19-His protein): 0.00759 nM; koff (monkey CD19-His protein): 1.4e-07 s⁻¹; kon (monkey CD19-His protein): 18400 M⁻¹ s⁻¹; Kd (Human CD19-his protein): 2 nM; koff (Human CD19-his protein): 0.000169 s⁻¹; kon (Human CD19-his protein): 84400 M⁻¹ s⁻¹ | F3.77.6 (antibody, human IgG1, V domains shown, human-murine chimeric antibody, human IgG1 constant) VH: EFQLQQSGPELVKPGASVKISCKASGYSFTDYNMNWVKQSNGKSLEWIGTINPNYITSYNQKFKGKATLTVDQSSSTAYMQLNSLTSEDSAVYYCAGDYKGYWGQGTTLTVSS VL: not shown
